Measurements: patent US20250340637A1 (ABPRO, published 2025)
Where a chain is given by its changes, count along the chain named.

Legend:
HuCD3E [1] = molecular target: T1, HuCD3E (Homo sapiens, UniProt P07766 23-126, limits assumed); experiment: SPR, Biacore 8K; CD3 Affinity column: Low
T1 construct: Recombinant analyte in SPR and antigen in ELISA; also called human CD3; human CD3 epsilon

HuCD3E [2] = molecular target: T1, HuCD3E; experiment: SPR, Biacore 8K; antibody captured, CD3E as analyte
Method: (§1) Initially, the affinity measurement of the anti-CD3 clones were determined using a Surface Plasmon Resonance (SPR) biosensor, Biacore 8K (GE Healthcare). The equilibrium dissociation constant (KD) was calculated from the ratio of kd over ka. To determine the contribution of a specific residue to antibody affinity and expression, paratope mapping was performed by screening of NNK libraries. In brief, the VH and VL of the parental antibody were searched by using NCBI Ig-Blast (www.ncbi.nlm.nih.gov/projects/igblast/) and CDRs were defined by the KABAT delineation system. All residues within CDRs were defined and mutated by NNK method. Each individual NNK library was generated per residue based on the FASEBA platform with a theoretical diversity at 20. The DNA encoding both heavy chain and light chain were inserted into a mammalian expression vector, transfected into CHO-S cells, and stable clones of highest expression were selected. Supernatants were collected from shaker flasks and purified on protein A affinity chromatography.
(§2) Affinity ranking. Binding between the parental and affinity-tuned bispecific antibodies and human and cyno target proteins (HER2 and CD3) was validated by ELISA, and a Biacore 8K was used to study the kinetics of the interaction between the antigen and the bispecific antibodies.

CynoCD3E [3] = molecular target: T2, CynoCD3E (cyno, UniProt Q95LI5 22-117, limits assumed); experiment: as above
T2 construct: Recombinant analyte in SPR and antigen in ELISA; The construct is not described; also called cynomolgus CD3 epsilon
T2 sequence (looked up): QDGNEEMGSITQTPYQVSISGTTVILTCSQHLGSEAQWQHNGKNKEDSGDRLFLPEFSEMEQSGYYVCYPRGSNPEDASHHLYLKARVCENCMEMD
Method: as §1, §2

HuCD3E [4] = molecular target: T1, HuCD3E; experiment: SPR, Biacore 8K; antibody captured, CD3E as analyte; sample after 24 h at 42° C.
Method: as §1
(§3) Thermal stability. […] After incubation, the supernatant was centrifuged at 4500 rpm, and undissolved substances was discarded. Heat-treated, purified full-length bispecific antibodies were re-evaluated for their concentrations, and affinity ranking of samples with thermal treatment to human and cyno CD3 was conducted.
as §2

CynoCD3E [5] = molecular target: T2, CynoCD3E; experiment: as above
Method: as §1, §3, §2

HuCD3E [6] = molecular target: T1, HuCD3E; experiment: SPR, Biacore 8K; CD3 Affinity column: Low; remark: listed apart in the source
Method: as §1, §2

HuCD3E [7] = molecular target: T1, HuCD3E; experiment: SPR, Biacore 8K; CD3 Affinity column: Med; lower end of the range
HuCD3E [8] = molecular target: T1, HuCD3E; experiment: SPR, Biacore 8K; CD3 Affinity column: Med; upper end of the range
HuCD3E [9] = molecular target: T1, HuCD3E; experiment: SPR, Biacore 8K; CD3 Affinity column: Hi
HuCD3E [10] = molecular target: T1, HuCD3E; experiment: SPR, Biacore 8K; CD3 Affinity column: Low; remark: listed apart in the source
HuCD3E [11] = molecular target: T1, HuCD3E; experiment: SPR, Biacore 8K; CD3 Affinity column: Low; remark: listed apart in the source
HuCD3E [12] = molecular target: T1, HuCD3E; experiment: SPR, Biacore 8K; CD3 Affinity column: Low; remark: listed apart in the source

T1 sequence (P07766 23-126 limits assumed): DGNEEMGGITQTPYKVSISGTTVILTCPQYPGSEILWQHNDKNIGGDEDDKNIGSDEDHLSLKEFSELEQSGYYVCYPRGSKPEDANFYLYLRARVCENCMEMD

B1: 32G4-V8-v5.5 (antibody, V domains shown)
VH: EVQLVESGGGLVQPGGSLKLSCAASGFTFNTYAMNWVRQAPGKGLEWVARIRSKYNNYATYYADSVKDRFTISRDDSKNTAYLQMNSLKTEDTAVYYCVRHGNFGNSYVSWFMYWGQGTLVTVSS
VL: QTVVTQEPSLTVSPGGTVTLTCRSSTGAVTTSNYANWVQQKPGQAFRGLIGGTNKRAPGVPARFSGSLLGGKAALTLSGVQPEDEAIYFCALWYSNLWVFGGGTKLTVL
HuCD3E [1]
  Kd: > 100 nM

B2: VH3 (SEQ ID NO: 18) + VL6 (SEQ ID NO: 19) (antibody, V domains shown)
VH: B1 VH with M113A
VL: B1 VL with T107E, V108I, L109K
notes: Humanized SP34 anti-CD3 variant; The sample heated at 42° C. is the same molecule and is marked under assay; also called VH3 + VL6
HuCD3E [2]
  Kd: 1.25 nM
  koff: 0.000286 s⁻¹
  kon: 229000 M⁻¹ s⁻¹
CynoCD3E [3]
  Kd: 1.71 nM
  koff: 0.000469 s⁻¹
  kon: 274000 M⁻¹ s⁻¹
HuCD3E [4]
  Kd: 1.38 nM
  koff: 0.000343 s⁻¹
  kon: 249000 M⁻¹ s⁻¹
CynoCD3E [5]
  Kd: 1.36 nM
  koff: 0.000489 s⁻¹
  kon: 359000 M⁻¹ s⁻¹

B3: ABP100s.10.6.5 (antibody, V domains shown)
VH: B1 VH with G44C
VL: B1 VL with G102C
HuCD3E [6]
  Kd: ≥ 100 nM

B4: ABP100s.10.0.2 (antibody, V domains shown)
VH: B1 VH with G44C, Y62K, M113A
VL: B1 VL with G102C
HuCD3E [7]
  Kd: ≥ 10 nM
HuCD3E [8]
  Kd: ≤ 100 nM

B5: ABP100s.10.4 (antibody, V domains shown)
VH: B1 VH with G44C, M113A
VL: B1 VL with G102C
HuCD3E [9]
  Kd: < 10 nM

B6: 47D10-V7-v5.5 (antibody, V domains shown)
VH: B1 VH
VL: B1 VL
HuCD3E [10]
  Kd: > 100 nM

B7: ABP100s.10.6.6 (antibody, V domains shown)
VH: B1 VH with G44C, M113A
VL: B1 VL with A91M, G102C
HuCD3E [1]
  Kd: ≥ 100 nM

B8: VH3 (SEQ ID NO: 18) + VL4 (SEQ ID NO: 20) (antibody, V domains shown)
VH: B1 VH with M113A
VL: B1 VL with I87E, T107E, V108I, L109K
notes: Humanized SP34 anti-CD3 variant; The sample heated at 42° C. is the same molecule and is marked under assay; also called VH3 + VL4
HuCD3E [2]
  Kd: 1.72 nM
  koff: 0.000331 s⁻¹
  kon: 192000 M⁻¹ s⁻¹
CynoCD3E [3]
  Kd: 2.14 nM
  koff: 0.000501 s⁻¹
  kon: 234000 M⁻¹ s⁻¹
HuCD3E [4]
  Kd: 1.5 nM
  koff: 0.000349 s⁻¹
  kon: 232000 M⁻¹ s⁻¹
CynoCD3E [5]
  Kd: 1.9 nM
  koff: 0.00049 s⁻¹
  kon: 257000 M⁻¹ s⁻¹

B9: ABP100s.10.5.5 (antibody, V domains shown)
VH: B1 VH with G44C
VL: B1 VL with G102C
HuCD3E [6]
  Kd: > 100 nM

B10: ABP100s.10.6 (antibody, V domains shown)
VH: B1 VH with G44C, M113A
VL: B1 VL with G102C
HuCD3E [9]
  Kd: < 10 nM

B11: ABP100s.10.5 (antibody, V domains shown)
VH: B1 VH with G44C, M113A
VL: B1 VL with G102C
HuCD3E [9]
  Kd: < 10 nM

B12: ABP100s.10.0.3 (antibody, V domains shown)
VH: B1 VH with G44C, S65K, M113A
VL: B1 VL with G102C
HuCD3E [7]
  Kd: ≥ 10 nM
HuCD3E [8]
  Kd: ≤ 100 nM

B13: 32G4-V8-v5.6 (antibody, V domains shown)
VH: B1 VH with M113A
VL: B1 VL with A91M
HuCD3E [1]
  Kd: > 100 nM

B14: ABP100s.10.0.1 (antibody, V domains shown)
VH: B1 VH with G44C, M113G
VL: B1 VL with G102C
HuCD3E [9]
  Kd: < 10 nM

B15: ABP100s.10.5.6 (antibody, V domains shown)
VH: B1 VH with G44C, M113A
VL: B1 VL with A91M, G102C
HuCD3E [6]
  Kd: > 100 nM

B16: ABP100s.10.0.5 (antibody, V domains shown)
VH: B1 VH with G44C
VL: B1 VL with G102C
HuCD3E [11]
  Kd: > 100 nM

B17: 47D10-V7-v5.6 (antibody, V domains shown)
VH: B1 VH with M113A
VL: B1 VL with A91M
HuCD3E [10]
  Kd: > 100 nM

B18: ABP100s.5.3 (antibody, V domains shown)
VH: B1 VH with M113A
VL: B1 VL with W93Y, T107E, V108I, L109K
HuCD3E [12]
  Kd: > 100 nM

B19: ABP100s.10.0.6 (antibody, V domains shown)
VH: B1 VH with G44C, M113A
VL: B1 VL with A91M, G102C
HuCD3E [11]
  Kd: > 100 nM

B20: ABP100s.10.0.4 (antibody, V domains shown)
VH: B1 VH with G44C, A63W, M113A
VL: B1 VL with G102C
HuCD3E [7]
  Kd: ≥ 10 nM
HuCD3E [8]
  Kd: ≤ 100 nM
